Experimental data taken from US20220380446A1 (ABL BIO, published 2022).
Like-named read-outs stand apart in the source and are kept apart here.

Tests used:
[1] = biological target: T1, human α-synuclein pre-formed fibrils (Human Alpha Synuclein Pre-formed Fibrils Type II, StressMarq SPR-317) (human, UniProt P37840 1-140); assay: sandwich ELISA, antibody coated, α-syn PFF added, 7B7-biotin detection
Description: (§1) Specifically, the antibodies were diluted with PBS by six-fold serial dilution from 400 nM to 0.009 nM. The diluted antibodies were added to a 96-well plate at 100 μL/well for coating. The plate was sealed and incubated at 4° C. for 16 hours. After washing with phosphate-buffered saline with Tween® (PBS-T; 0.05% Tween® 20) five times, the plate was blocked with 5% BSA in PBS 200 μL/well at 37° C. for 2 hours. After washing with PBS-T five times, α-syn PFF (2 μg/mL, 100 μL/well in 2% BSA in PBS) was added to the plate and incubated at 37° C. for 2 hours. After washing with PBS-T five times, 7B7-biotin antibody (anti-α-syn antibody; 1 μg/mL/100 μL/well, in 2% BSA in PBS) was added and incubated at 37° C. for 2 hours. After washing with PBS-T five times, the plate was incubated with horseradish peroxidase (HRP)-bound streptavidin in PBS with 2% BSA (1:5000, 1 mg/mL stock, 20 ng/well, 100 μL/well) at 37° C. for 1 hour. After washing with PBS-T five times, 3,3′,5,5′-tetramethylbenzidine (TMB) (100 μL/well) was added and incubated at room temperature for 5 minutes. The reaction was stopped by the addition of 0.5 N H₂SO₄ (50 μL/well). Optical absorbance at 450 nm was measured by using a plate reader, with absorbance at 650 nm subtracted from the reading.

[2] = biological target: T1, human α-synuclein pre-formed fibrils …; assay: SPR Biacore, antibody captured on anti-hFab CM3 chip, α-syn PFF analyte, single-cycle kinetics, 1:1 model
Description: (§2) The equipment used was Biacore®. Anti-hFab (Sigma, I5260-1ML) diluted in acetate buffer (pH 5.0) was immobilized on the surface of an CM3 chip (GE Healthcare) by amine coupling. […] All procedures in association and dissociation phases were done in single-cycle kinetics. A 1:1 binding model was used for fitting, and the Biacore® T200 Evaluation software was used for the evaluation.

[3] = biological target: T1, human α-synuclein pre-formed fibrils …; assay: SPR (Biacore), antibody captured on anti-hFab CM3 chip, α-syn PFF as analyte (sample PFF-2), single-cycle kinetics, 1:1 Binding fit, 25 °C; Run2
Description: as §2

[4] = biological target: T2, human α-synuclein oligomers (Dopamine HCL Stabilized Human Recombinant Alpha Synuclein Oligomers, StressMarq … (human, UniProt P37840 1-140)); assay: sandwich ELISA, antibody coated, oligomeric α-syn added, 7B7-biotin detection
Description: Human α-syn oligomers from StressMarq (Dopamine HCL Stabilized Human Recombinant Alpha Synuclein Oligomers, SPR-466) was used as the oligomeric α-syn in the assay.
(§3) In this sandwich ELISA, test antibodies were diluted with PBS by five-fold serial dilution from 80 nM to 0.005 nM. The serially diluted antibodies were added to a 96-well plate at 100 μL/well for coating. The plate was sealed and incubated at 4° C. for 16 hours. After washing with PBS-T five times, the plate was blocked with 5% BSA in PBS 200 μL/well at 37° C. for 2 hours. After washing with PBS-T five times, oligomeric α-syn (2 μg/mL, 100 μL/well in 2% BSA in PBS) was added and incubated at 37° C. for 2 hours. After washing with PBS-T five times, 7B7-biotin antibody (1 μg/mL, 100 μL/well, in 2% BSA in PBS) were added and incubated at 37° C. for 2 hours. After washing with PBS-T five times, the plate was incubated with Streptavidin-HRP in 2% BSA in PBS (1:5000, 1 mg/mL stock, 20 ng/well, 100 μL/well) at 37° C. for 1 hour. After washing with PBS-T five times, TMB (100 μL/well) was added and incubated at RT for 5 minutes. The reaction was stopped by the addition of 0.5 N H₂SO₄ (50 μL/well).

[5] = biological target: monomeric human α-synuclein (Active Human Recombinant Alpha Synuclein Protein Monomer type II, StressMarq … (human, UniProt P37840 1-140)); assay: SPR (Biacore T200), antibody captured on Protein A chip, α-syn monomer as analyte (Monomer-1), 25 °C; Run01; number of the software's 1:1 fit printed under a sensorgram without binding response (the filing's Table 18: No-binding)
Description: The equipment used was Biacore® T200. The anti-α-syn monospecific antibody or the anti-α-syn/IGF1R bispecific antibody was diluted with 1×HBS-EPT. […] Each diluted monomer sample was injected at 60 μL/min onto the Protein A chip surface for 60 seconds, followed by washing with 1×HBS-EP buffer. The dissociation rate was evaluated for 180 seconds. All procedures in association/dissociation phases were done in single cycle kinetics. The chip surface was regenerated by injecting 10 mM glycine-HCl pH 1.5 (GE Healthcare) onto the chip surface for 60 seconds at 30 μL/min, removing residual α-syn monomer/antibody complex. A 1:1 binding model was used for fitting, and the Biacore® T200 Evaluation software was used for evaluation.

[6] = biological target: T2, human α-synuclein oligomers (Dopamine …); assay: sandwich ELISA, antibody coated, oligomeric α-syn added, 7B7-biotin detection; remark: listed apart in the source
Description: as §3

[7] = biological target: T1, human α-synuclein pre-formed fibrils …; assay: sandwich ELISA, antibody coated, α-syn PFF added, 7B7-biotin detection; remark: listed apart in the source
Description: as §1

B1: hu1E4(V1_VL1) x Grabody B (bispecific antibody, human IgG1, kappa)
heavy 1: not shown
heavy 2: not shown
light: DIVMTQTPLSLSVTPGQPASISCRSSQSLVHSNGNTYLHWYLQKPGQSPQLLIYKVSNRFSGVPDRFSGSGSGTDFTLKISRVEAEDVGVYYCSQSTHVPRTFGQGTKLEIKRTVAAPSVFIFPPSDEQLKSGTASVVCLLNNFYPREAKVQWKVDNALQSGNSQESVTEQDSKDSTYSLSSTLTLSKADYEKHKVYACEVTHQGLSSPVTKSFNRGEC
notes: Anti-α-syn/IGF1R bispecific; hole heavy chain (M428L) carries the anti-IGF1R scFv Grabody B at its C-terminus through a (G4S)3 linker; knob heavy chain (M428L) without scFv; also called hu1E4(V1 VL1) × Grabody B; 1E4(Ver.1_VL1) × Grabody B
An EC50 [1] of 0.334 nM, a Kd [2] of 0.0379 nM and a koff [2] of 0.000706 s⁻¹ were found for B1 in this work. It also gave a kon [2] of 1.87e+07 M⁻¹ s⁻¹, a koff [3] of 0.000743 s⁻¹ and a kon [3] of 1.83e+07 M⁻¹ s⁻¹. It also gave an EC50 [4] of 3.62 nM, a Saturation point [4] of 3.18 and a koff [5] of 2.23 s⁻¹. It also gave a kon [5] of 3.57e+07 M⁻¹ s⁻¹, an EC50 [6] of 3.82 nM and an EC50 [7] of 0.236 nM.
